Measurements published in patent publication US8293494B2, “Tri-demethylation-capable protein complex, method of its preparation and its use” (Universitatsklinikum Freiburg, priority 2007, dated 2012).
Where a chain is given by its changes, count along the chain named. Names and notes keep the numbering of the source.

B1: JMJD2C: Recombinantly expressed and purified His-tagged JMJD2C (aa 12-349), a JMJC domain-containing histone demethylase (protein, UniProt Q9H3R0 12-349, looked up, fragment)
chain: PSCKIMTFRPSMEEFREFNKYLAYMESKGAHRAGLAKVIPPKEWKPRQCYDDIDNLLIPAPIQQMVTGQSGLFTQYNIQKKAMTVKEFRQLANSGKYCTPRYLDYEDLERKYWKNLTFVAPIYGADINGSIYDEGVDEWNIARLNTVLDVVEEECGISIEGVNTPYLYFGMWKTTFAWHTEDMDLYSINYLHFGEPKSWYAIPPEHGKRLERLAQGFFPSSSQGCDAFLRHKMTLISPSVLKKYGIPFDKITQEAGEFMITFPYGYHAGFNHGFNCAESTNFATVRWIDYGKVAKLCTCRKDMVKISMDIFVRKFQPDRYQLWKQGKDIYTIDHTKPT
modifications: His-tag
notes: Recombinantly expressed and purified His-tagged JMJD2C (aa 12-349), a JMJC domain-containing histone demethylase
B2: JMJD2C H190A: enzymatically impaired mutant JMJD2C H190A (aa 12-349) (protein)
chain: B1 chain with H179A
modifications: left off: small tags and cut ends

Tested on: H3K9 on core histones or nucleosomes from HeLa cells
Assay: In vitro demethylation assay
Assay type: biochemical
Settings: 5 hours at 37° C., Western blot; for demethylation of trimethyl H3K9: core histones and nucleosomes from HeLa cells
Experimental: FIG. 2 JMJD2C interacts with chromatin and demethylates H3K9. LNCaP cells were incubated with or without the AR agonist R1881 (a, b), and transfected with stealth RNAi (b). ChIP or Re-ChIP was performed with the indicated antibodies. The precipitated chromatin was amplified by PCR using primers flanking the promoter region (ARE I+II) and the enhancer region (ARE III) of the PSA gene, the promoter region (ARE) of the KLK2 gene, or the promoters of the unrelated GAPDH and U6 genes. Western blot analysis (b, lower right panel) verified the specific siRNA-mediated knockdown of JMJD2C. c, Core histories or nucleosomes from HeLa cells were incubated with recombinant JMJD2C (aa 12-349) or mutant JMJD2C H190A (aa 12-349). Western blots were decorated with the indicated antibodies against α-mono-, α-di-, or α-trimethyl H3K9.
FIG. 6: The integrity of core histones and nucleosomes is maintained during the demethylation assay. Core histones or nucleosomes from HeLa cells were incubated with recombinant JMJD2C (aa 12-349) or mutant JMJD2C H190A (aa 12-349). Western blots were decorated with α-H3 antibody.
The demethylation assays were performed as described^4. His-tagged proteins were incubated for 5 hours at 37° C. in demethylation buffer containing 50 mM HEPES-KOH pH 8.0, 2 mM ascorbate, 100 μM Fe(NH4)2(SO4)2, 1 mM α-ketoglutarate with 1 μg of nucleosomes or core histones purified from HeLa cells^22. The reaction mixture was analysed by SDS-PAGE followed by Western blotting using antibodies as indicated.

Molecule	methylation status of mono- and dimethyl H3K9	demethylation of trimethyl H3K9
B1	not altered	very efficiently demethylates
B2	–	fails to demethylate
